Reference: the nanobody polyreactivity screen of Harvey et al. (2022)

Experiment: yeast display, Sf9 membrane polyspecificity reagent, FACS + sequencing; frameworks hold sequencing errors
How it was run: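 Nanobodies from a synthetic yeast display library (Saccharomyces cerevisiae BJ5465), induced 36–48 hours with galactose, were stained 1 hour at 4 °C with 10% biotinylated, detergent-solubilized Sf9 membrane reagent, enriched on streptavidin microbeads, then FACS-sorted. Anti-HA (expression) and streptavidin (reagent binding) fluorescence set low and high (top ~1%) gates. Polyreactivity labels come from the gate of origin. Genes were colony-PCR amplified, MiSeq 2 × 250 sequenced and filtered by CDR length.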

Sequence | polyreactivity (PSR sort gate)
QVQLVESGGGLVQAGGSLRLSCAASGGIFYFNAMGWYRQAPGKERELVASITWSGGNTYYADSVKGRFTISRDNAKNTVYLQMNSLKPEDTAVYDCAADTQEYRPTYDYWGQGTQVTVSS | low polyreactivity
QVQLVESGGGLVQAGGSLRLRCAASGRIFGFYAMGWYRQAPGKERELVAAITSSAGRTRYADSVKGRFTISRDNAKNTVYLQMNSLKPEDTAVYYCAARTVGRKAGFDYWGQGTQVTVSS | high polyreactivity
QVQLGESGGGLVQAGGSLRLSCAASGSTFYRYAMGWYRQAPGKERELVAAITRGGGNTYYADSVKGRFTISRDNAKNTVYLQMNSLKPEDTAVYYCNTDPTLRSRVGIWGFDYWGQGTQVTVSS | high polyreactivity
QVQLVESGGGLVQAGGSLRLSCAASGSIIQGYVMGWYRQAPGKERELVAAISNSGSSTYYADSVKGRFTISRDNAKNTVYIQMNSLKPEDTAVYYCAVLRSYRGYKYGYWGQGTQVTVSS | high polyreactivity
QVQLVESGGGLVQAGGSLRLSCAASGSIFVRNVMGLYRQAPGKERELVATIRYRGGSTYYADSVKGRFSISRDNAKNTVYLQMNSLKPEDTAVYYCNARYLWADEYYYWGQGTQVTVSS | low polyreactivity
QVQLVESGGGLVKAGGSLRLSCAASGFTFLNNTMGWYRQAPGKERELVAGITSSGDRTYYADSVKGRFTISRDNAKNTVYLQMNSLKPEDTAVYYCNADSSYPPGYDYWGQGTQVTVSS | low polyreactivity
QVQLVESGGGLVQAGCSLRLSCAASGFTFAGNAMGWYRQAPGKERELVAAISRRGGSTYYADSVKGRFTISRDNAKNTVYLKMNSLKPEDNAVYYCAAVYRYDYDYWGQGNQVTVSS | high polyreactivity
QVQLVESGGGLVQAGGSLRLSCAASGSTFEYNVMGWYRQAPGKERELVASITSDGNTNYSDSVKGRFTISRDNAKNTVYLQMNSLKPEDTAVYYCNFYTWHWTFGMDYWGQGTQVTVSS | low polyreactivity
KVHLVESGGGLVQAGGSLRLSCAASGRIFRYYAMGWYRHAPGKERELVAAIRYLGASTYYADSVKGRFTISRDNAKNTVYLQMNSLKPEDTAVYYCNRTPRSKGNYWGQGTLVTVSS | high polyreactivity
QVQLVESGGGLVQAGGSLRLSCAASGSTFLANAMGWYRQAPGKEWELVATISSGGSTNYADSVKGRFTISRDNAKNTVYLQMNSLKPEDTAVYYCAAEYWYAWQEYGYWGQGTQVTVSS | low polyreactivity
QVQLVESGGCLVQAGGSLRLSCAASGSIFNRYTMGWYRQAPGKEREFVAAISSSGTSTYYADSVKGRFTISRDNAKNTVYLQMNILKPEDTAVYYCAADWTGGFYTWYVIPYDYWGQGTQVTVSS | low polyreactivity
QVQLVESGGGLVQAGGSLRLSCAASGIIFQFYAMGWYRQAPGKERELVAAISRSGGITHYADSVKGRFTISRDNAKNTVYLQMNSLKPEDTAVYYCAAVRQAYPRLDYWGQGTQVTVSS | high polyreactivity
QVQLVESGGGLVQAGGSLRLSCAASGSTSVVNTMGWYRQAPGKERELVAAISWSGGSTYYADSVKGRFTISRDNAKNTVYLQMNSLKPEDTAVYYCNAQRNFKSITEYDYWGQGTQVTVSS | high polyreactivity
QVQLVESGGGLVQAGGSLRLCCAASGSIFRPNAMGWYRQAPGKERELVAGISSRGGSTYYADSVKGRFTISRDNAKNTVYLQMNSLKPEDTAVYYCNALTYSSQRNSFYYSFDHWGQGTQVTVSS | high polyreactivity
QVQLVESGGGLVQAGGILRISCAASGRTSYWYAMAWYRQAPGKERELVADISWSGGSTYYADSVKGRFTISRDNAKNTVYLQMNSLNPEDTAVYYCIGAEQKYSIYYAFDTGPYDYWGQGTQVTVSS | low polyreactivity
QVQLVESGAGLVQAGGSLRLSCAASGRTFTSNSMGLYIQAPGKERELVASISFRGGRTYYADSVKVRFTISRDNAKNTVYLQMNSLKPEDTAVYYCVSGTKRTGYGYWGQGTLVTVSS | high polyreactivity
QVQLVESGGGLVQAGGSLRLSCAASGRIFQKYAMVWYRQAPGKERELVAAISSGDSTYADSVKGRFSISRDNAKNTVYLQMNSLKPEDTAVYYCAGDLYDPWWYSYMGEYEYWGQGTQVTVSS | low polyreactivity
QVQLVESGGGLVQAGGSLRLSCAASGRTFLHYAMGWYRPAPGKERELVAAMSWSGGSTNYADSVKGRFTISRDNAKNTVYLQMNSLKPEDTAVYYCAADFYWVIYSTVEYGYWGQGTQVTVSS | low polyreactivity
QVQLVESGGGLVQTGGSLRLSCAASGFIFGPYVMGWYRQAPRKERELFAAISSDGSTTYADSVKGRFTISRDNEKNTVYLQMNSLKPEDTAVYYFAAEDQQNGYDYWGQGTQVTVSS | low polyreactivity
QVQLVESGGGLVQAGGSLRLSCAASGSTFHYYAMGWYRQAPGKERELVATITWRGGFTYYADSVKGRFTISRDNAKNTVYLQMNSLKPEDTAGYYCTDYSVRRYRDPRLYYWGQGTQVTVSS | high polyreactivity
QVQRVESGGGLVQAGGSLRLSCAASGITFGIYVMGWYRQAPGKETELVATISRSDDNTYYADSVKGRFTISRDNAKNTVYLQMNSLKPEDTAVYYCAADGVISAWYSSRDDYWGQGTQVTVSS | low polyreactivity
QVQLVESGGGLVQAGGSLRLSCAASGFIFDDNAMGWYRQAPGKERELVATITWSTGSTYYADSVKGRFTISRDNAKNTVYLQMNSLKPEDTAVYYCAKESYFYRYYLAYDYWGQGTQVTVSS | low polyreactivity

Sequence | polyreactivity (PSR sort gate)
QVQLVESGGGLDQAGGSLRLSCAASGSIFGSYAMGWNTPAPGKERELVAAISVSGGSTYYADSVKGRFTISRYNAKNTVYLQMNSLKPEDTAVYYCAADWQELEYDYWGQGTQVTVSS | low polyreactivity
QVQLVESGGGLVQAGGSLRLSCAPSGFIFVKYVMGWYRQAPGKERELVATITGSTGGTYYADSVKGRFTISRDNAKNTVYLQMNSLKPEDTAVYYCNKDYYYNPGNVASGYDYWGQGTQVTVSS | low polyreactivity
QVQLVESGGGLVQAGGSHRLSCAAYGYTIPFYTMGWYRQAPGKERDLVAAINSGGSTYYADSVKGRFTISRDNAKNTVYLQMNTLKPEDTAVYYCAVEGGFRVRYQAQYRYYYWGQGTQVIVSS | high polyreactivity
QLQLVESGGGLVQAGGSLRLSCAASGRIFYYYTMGWYRQAPGKERELVARITGLTGRTYYADSVKGRFTISRDNAKNTVYLQMNSLKPEDTAVYYCNAVLGYYTYDYWGQGTQVTVSS | high polyreactivity
QVQLVESGGGLVQAGGSLRLSCAASGRIFVYNVMGWYRQAPGKERELVAAISWGTGSTYADSVKGRFTISRDNAKNTVYLQMNSLKPEDTAVYYCAADWLSTKNDYWGQGTQVTVSS | low polyreactivity
QVQLVESGGGLVQAGGSLRLSCAASGFIFRYNAMGWYRQAPGKERELVAAISSSGGSTYYADSVKGRFTISRDNAKNTVYVQMNSLKPEDTAVDYCNAYNYGYIGYGYNYWGQGTQVTVSS | high polyreactivity
QVQLVESGGGLVQAGGSLRLSCAASGGIFIANAMGWYRQAPGKERELVAAISSSGGSTYYADSVKGRFTISRDNAKNTVYLQMNSLKPEDTAVYYCAARRSVRRGGDYYWGQGTQVTVSS | high polyreactivity
QVKLVESGGGLVQAGGSLRLSCAASGSTINLYDMGSYIQAPGKERELVADISRGGSTNYADSVKGRFTITRDNAKNTVYLQMNSLIPEDTAVYYCAAFYFTYDFWTYSFAEYDYWGQGTQVTVSS | high polyreactivity
QVQLVESGGGLVQAGGSLRLSCAASGFTFARYTMGWYRQAPGKERELVAAISSRGSSTYYADSVKGRFTISRDNAKNTVFLQMNSLKPEDTAVYYCAASPYDTQTLDYDYWGQGTQVTVSS | high polyreactivity
QVHLVESGGGLVQAGGSLRLSSAASGSIFYLNAMGWYRQAPGKERELVATISNGGSTNYADSVQGRFTISRDNAKNTVYLQMNSLKPEDTAVYYCDAASGGTVVGEGDYWGQGTQVTVSS | low polyreactivity
QVQLVESGGGLVQAGGSLRLSCAASGITIVRYAMGWYRQAPGKERELVAAINRSGGSTYYADSVKGRFTISRDNAKNTVYLQMNSLKPEDTAVYYCAARLYGKYDPPGYYYWGQVTQVTVSS | high polyreactivity
QVQLVESGGGLVQAGGSLRLSCAASGRTFWYYAMGWYRQAPGNERELVATISYRGGSTYYADSVKGRFTISRDNAKNTVYLQMNSLKPEDPAVYYSAAKQWWGGRPKVDYWGQGTQVTVSS | high polyreactivity
QVQLVESGGGLVQAGGSLRLSCAASGSNFSSYALGWYRQAPGKERELVAAITSGGSTYYADSVKARFTISRDNAKNTVYLQMNSLKPEDTAVYYCNADISRDNDFDYWGQGTQVTVSS | low polyreactivity
QVQIEESGGGLVQEGGSLRISCAASGRIFVYYAMGWNRQAPGKDWELVAAISSGGNTYADSVKGRFTISRDNAKITVYLQMYSLKPDDTAVYYCNASPVSSHVHPKRGYEYWGQGTQVNVSS | low polyreactivity
QVQLEESGGGLVQAGGSLRLSCAASGRIFFKYSMGWYRQAPGKERELVATISSSTGSTYYADSVKGRFTISRDNAKNTDYLQMNSLKPEDTAVYYCNARVRTQQRWVDYWGQGTQVTVSS | high polyreactivity
QVQLEESGGGLVQAGGSLRLSCAASGSIFGLYAMGWYRQAPGKERELVAAINQSGGSTSYADSVKGRFTISRDNAKNTVYLQMNSLKPEDTAVYYCNRVRLNTEGFDYWGQGTQVTVSS | low polyreactivity
QVQLVESGGGLVQAGGSLRLSCAATGSIFYAYAMGWYRQAPGKERELVAGISGGGSTNYADSVKGRFTISRDNAKNTVYLQMNSLKPEDTAVYYCAADGWLSATYDGLPDSDSWGQGTQVTVSS | high polyreactivity
QVQLVESGGGLVQAGGSLRLSCAASGSIFAVNTMGWYRQAPGKERELVAAISQRGSSTYYADSVKGRFTISRDNAKNTVYLQMNSLKPEDTAVYYCAKRFIYGRYNYWGQGTQVTVSS | high polyreactivity
QVHLVESGGGLVQAGGSLRLSCAASGSIFFDGNAMGWYRQAPGKERELVAAISVSGGSTYYADSVKGRFTISRDNAKNTVYLQMNSLKPEDTAVYYCAKYPSNSYVPGDYWGQGTQVTVSS | low polyreactivity
QFQLVESGGGLVQAGGSLRLSCAASGSTFVYNAMGWDRHAPGKERELVAAISRGGGITYYADSVKGRFTISRDKAKNSVYFQMHSLKPEDTAVYYCQYLSRGLNTYRSSQGDDDYWGHGTQVTVSS | high polyreactivity
QVQLVESGGGLVQAGGSLRLSCAASGFIFGGYAMVWYRQAPGKERELVAAISSSGGSTYYADSVTGRFTISRDNAKNTVSLQMNSLKPEDTAVYYCAIVGWSRRYYYWGQGTQVTLSS | high polyreactivity
